{"source": "paper PMC9555727", "about": "(Chemical Science, 2022)", "molecules": {"B1": {"name": "FabG (3-oxoacyl-[acyl-carrier-protein] reductase) from E. coli-K12 (enzyme, E. coli K12)", "chain": "MNFEGKIALVTGASRGIGRAIAETLAARGAKVIGTATSENGAQAISDYLGANGKGLMLNVTDPASIESVLEKIRAEFGEVDILVNNAGITRDNLLMRMKDEEWNDIIETNLSSVFRLSKAVMRAMMKKRHGRIITIGSVVGTMGNGGQANYAAAKAGLIGFSKSLAREVASRGITVNVVAPGFIETDMTRALSDDQRAGILAQVPAGRLGGAQEIANAVAFLASDEAAYITGETLHVNGGMYMV", "notes": "FabG, 3-oxoacyl-[acyl-carrier-protein] reductase of E. coli K12, Arg at position 167; probably the same vector, cleaved His-bdSumo tag and added N-terminal alanine as for the other proteins; also called FabG^K12; source: E. coli, purified"}}, "key": {"Can (E. coli BL21 (DE3))": {"biological_target": "Can (E. coli BL21 (DE3))", "assay": "not stated; summary of the solution experiments on the 17 proteins (native MS, MP, SEC, SAXS); which method gave the stated form is not given; details in Table S2, Fig. 5A and Fig. 6"}, "[1]": {"biological_target": "FabG (3-oxoacyl-[acyl-carrier-protein] reductase) from E. coli-DE3 (E. coli BL21 (DE3))", "assay": "native MS; as a1, FabG^DE3 in the presence of DTT; 2.5-40 μM"}, "[2]": {"biological_target": "FabG (3-oxoacyl-[acyl-carrier-protein] reductase) from E. coli-DE3 (E. coli BL21 (DE3))", "assay": "SEC; 30 μg protein on Superdex 200 Increase 10/300 GL in PBS pH 7.4; MM from a standard curve of elution volumes"}, "[3]": {"biological_target": "FabG (3-oxoacyl-[acyl-carrier-protein] reductase) from E. coli-DE3 (E. coli BL21 (DE3))", "assay": "non-reducing SDS-PAGE; 10 μg protein without β-mercaptoethanol, heated, 4-20% gel, Coomassie stain; shows inter-protein disulfide bridges"}, "[4]": {"biological_target": "FabG (3-oxoacyl-[acyl-carrier-protein] reductase) from E. coli-DE3 (E. coli BL21 (DE3))", "assay": "SAXS; EMBL P12 beamline, 20 °C, four concentrations between about 10 and 90 μM; MM from I(0) and equilibrium fit with OLIGOMER on PDB structures"}, "[5]": {"biological_target": "FabG (3-oxoacyl-[acyl-carrier-protein] reductase) from E. coli-DE3 (E. coli BL21 (DE3))", "assay": "SAXS; EMBL P12 beamline, 20 °C, four concentrations between about 10 and 90 μM; MM from I(0) and equilibrium fit with OLIGOMER on PDB structures", "remark": "listed apart in the source"}, "[6]": {"biological_target": "FabG (3-oxoacyl-[acyl-carrier-protein] reductase) from E. coli-DE3 (E. coli BL21 (DE3))", "assay": "mass photometry; protein stocks diluted in PBS pH 7.4 to nanomolar concentrations (~100 nM) immediately before measurement; detection threshold ~40 kDa"}, "[7]": {"biological_target": "FabG (3-oxoacyl-[acyl-carrier-protein] reductase) from E. coli-DE3 (E. coli BL21 (DE3))", "assay": "native MS; online buffer exchange MS; proteins diluted in 50 mM HEPES, 50 mM NaCl pH 7.4 (FabG: 25 mM tricine, 50 mM NaCl pH 8.5), overnight at 4 °C, exchanged online to 200 mM ammonium acetate pH 6.8; range of concentrations 40-0.15 μM before dilution; DeoC: apparent affinity, dimer to monomers, fit of eqn (1)"}, "[8]": {"biological_target": "IspD (E. coli BL21 (DE3))", "assay": "not stated; summary of the solution experiments on the 17 proteins (native MS, MP, SEC, SAXS); which method gave the stated form is not given; details in Table S2, Fig. 5A and Fig. 6"}, "[9]": {"biological_target": "NadK (E. coli BL21 (DE3))", "assay": "SEC; 30 μg protein on Superdex 200 Increase 10/300 GL in PBS pH 7.4; MM from a standard curve of elution volumes"}, "[10]": {"biological_target": "NadK (E. coli BL21 (DE3))", "assay": "SAXS; EMBL P12 beamline, 20 °C, four concentrations between about 10 and 90 μM; MM from I(0) and equilibrium fit with OLIGOMER on PDB structures"}, "[11]": {"biological_target": "NadK (E. coli BL21 (DE3))", "assay": "native MS; online buffer exchange MS; proteins diluted in 50 mM HEPES, 50 mM NaCl pH 7.4 (FabG: 25 mM tricine, 50 mM NaCl pH 8.5), overnight at 4 °C, exchanged online to 200 mM ammonium acetate pH 6.8; range of concentrations 40-0.15 μM before dilution; DeoC: apparent affinity, dimer to monomers, fit of eqn (1)"}, "[12]": {"biological_target": "SpeB (E. coli BL21 (DE3))", "assay": "not stated; summary of the solution experiments on the 17 proteins (native MS, MP, SEC, SAXS); which method gave the stated form is not given; details in Table S2, Fig. 5A and Fig. 6"}, "[13]": {"biological_target": "Superoxide dismutase (SodA) (E. coli BL21 (DE3))", "assay": "SEC; 30 μg protein on Superdex 200 Increase 10/300 GL in PBS pH 7.4; MM from a standard curve of elution volumes"}, "[14]": {"biological_target": "Superoxide dismutase (SodA) (E. coli BL21 (DE3))", "assay": "SAXS; EMBL P12 beamline, 20 °C, four concentrations between about 10 and 90 μM; MM from I(0) and equilibrium fit with OLIGOMER on PDB structures"}, "[15]": {"biological_target": "Superoxide dismutase (SodA) (E. coli BL21 (DE3))", "assay": "mass photometry; protein stocks diluted in PBS pH 7.4 to nanomolar concentrations (~100 nM) immediately before measurement; detection threshold ~40 kDa"}, "[16]": {"biological_target": "Superoxide dismutase (SodA) (E. coli BL21 (DE3))", "assay": "native MS; online buffer exchange MS; proteins diluted in 50 mM HEPES, 50 mM NaCl pH 7.4 (FabG: 25 mM tricine, 50 mM NaCl pH 8.5), overnight at 4 °C, exchanged online to 200 mM ammonium acetate pH 6.8; range of concentrations 40-0.15 μM before dilution; DeoC: apparent affinity, dimer to monomers, fit of eqn (1)"}, "Upp (E. coli BL21 (DE3)) [17]": {"biological_target": "Upp (E. coli BL21 (DE3))", "assay": "mass photometry; protein stocks diluted in PBS pH 7.4 to nanomolar concentrations (~100 nM) immediately before measurement; detection threshold ~40 kDa"}, "Upp (E. coli BL21 (DE3)) [18]": {"biological_target": "Upp (E. coli BL21 (DE3))", "assay": "not stated; summary of the solution experiments on the 17 proteins (native MS, MP, SEC, SAXS); which method gave the stated form is not given; details in Table S2, Fig. 5A and Fig. 6"}, "[19]": {"biological_target": "the molecule itself", "assay": "SEC; 30 μg protein on Superdex 200 Increase 10/300 GL in PBS pH 7.4; MM from a standard curve of elution volumes"}, "[20]": {"biological_target": "the molecule itself", "assay": "native MS; online buffer exchange MS; proteins diluted in 50 mM HEPES, 50 mM NaCl pH 7.4 (FabG: 25 mM tricine, 50 mM NaCl pH 8.5), overnight at 4 °C, exchanged online to 200 mM ammonium acetate pH 6.8; range of concentrations 40-0.15 μM before dilution; DeoC: apparent affinity, dimer to monomers, fit of eqn (1)"}}, "note": "Values joined by “and” are separate entries in the source; they are usually repeats but may differ in a detail not shown here. Equal entries are not always repeated. Where two headings read alike, the source gives them in different places."}
{"molecule": "Can (enzyme)", "values": [{"measurement": "stoichiometry N", "setting": "Can (E. coli BL21 (DE3))", "result": 4}]}
{"molecule": "FabG (3-oxoacyl-[acyl-carrier-protein] reductase) from E. coli-DE3 (enzyme)", "values": [{"measurement": "stoichiometry N", "setting": "[1]", "result": "2 and 4"}, {"measurement": "stoichiometry N", "setting": "[2]", "result": "4 and 2"}, {"measurement": "percent in an inter-protein disulfide bonded dimer", "setting": "[3]", "result": 50, "unit": "%"}, {"measurement": "SAXS MM from I(0) divided by the monomer's mass", "setting": "[4]", "result": 3.7}, {"measurement": "SAXS MM from I(0) divided by the monomer's mass", "setting": "[5]", "result": 3.5}, {"measurement": "stoichiometry N", "setting": "[5]", "result": "6 and 2 and 4"}, {"measurement": "stoichiometry N", "setting": "[6]", "result": "2 and 4 and 6"}, {"measurement": "stoichiometry N", "setting": "[7]", "result": 6}]}
{"molecule": "IspD (enzyme)", "values": [{"measurement": "stoichiometry N", "setting": "[8]", "result": "2 and 4"}]}
{"molecule": "NadK (enzyme)", "values": [{"measurement": "stoichiometry N", "setting": "[9]", "result": 2.7}, {"measurement": "subunit average from SAXS I(0) at 8 μM", "setting": "[10]", "result": 2.37}, {"measurement": "subunit average from SAXS I(0) at 61 μM", "setting": "[10]", "result": 2.67}, {"measurement": "percent dimer at ∼1 μM", "setting": "[11]", "result": 56, "unit": "%"}, {"measurement": "percent dimer at ∼40 μM", "setting": "[11]", "result": 23, "unit": "%"}, {"measurement": "percent monomer at ∼1 μM", "setting": "[11]", "result": 12, "unit": "%"}, {"measurement": "percent monomer at ∼40 μM", "setting": "[11]", "result": 2, "unit": "%"}, {"measurement": "percent tetramer at ∼1 μM", "setting": "[11]", "result": 32, "unit": "%"}, {"measurement": "percent tetramer at ∼40 μM", "setting": "[11]", "result": 75, "unit": "%"}, {"measurement": "stoichiometry N", "setting": "[11]", "result": "2 and 4"}]}
{"molecule": "SpeB (enzyme)", "values": [{"measurement": "stoichiometry N", "setting": "[12]", "result": 6}]}
{"molecule": "Superoxide dismutase (SodA) (enzyme)", "values": [{"measurement": "stoichiometry N", "setting": "[13]", "result": 2}, {"measurement": "stoichiometry N", "setting": "[14]", "result": 2}, {"measurement": "stoichiometry N", "setting": "[15]", "result": 2}, {"measurement": "stoichiometry N", "setting": "[16]", "result": 2}]}
{"molecule": "Upp (enzyme)", "values": [{"measurement": "stoichiometry N", "setting": "Upp (E. coli BL21 (DE3)) [17]", "result": 2}, {"measurement": "stoichiometry N", "setting": "Upp (E. coli BL21 (DE3)) [18]", "result": "2 and 4 and 6"}]}
{"molecule": "B1", "values": [{"measurement": "stoichiometry N", "setting": "[19]", "result": 2}, {"measurement": "stoichiometry N", "setting": "[20]", "result": 4}]}
